Laboratory results from patent publication US20230157952A1, “METHOD FOR IMPROVING THE STABILITY OF A PHARMACEUTICAL COMPOSITION COMPRISING A HIGH PENETRATION DRUG, AND THE PHARMACEUTICAL COMPOSITION OBTAINED THEREFROM” (Techfields Inc., priority 2020, published 2023).
Non-standard residues stand in square brackets, D forms with d. *: point of attachment. Arg(NO2) = N=C(NCCC[C@H](N)C(=O)O)N[N+](=O)[O-]; OiPr = CC(C)O*

Experiment: Effect of pH value on the stability of the solution (purity)
Assay type: physicochemical
Details: 5% solution
[1] = 25% ethanol (after multiple recrystalization), pH 3.7, 25° C.
[2] = 25% ethanol with 0.5 equivalent sodium acetate, pH 3.7, 25° C.
[3] = 25% ethanol with 1 equivalent sodium acetate, pH 4.6, 25° C.
[4] = 25% ethanol with 1.5 equivalent sodium acetate, pH 5.6, 25° C.
[5] = 25% ethanol with HCl, pH 1.0, 25° C.
[6] = 25% ethanol with HCl, pH 2.0, 25° C.
[7] = 25% ethanol with NaOH, pH 7, 25° C.
[8] = 25% ethanol with NaOH, pH 8, 25° C.

H-Val-Pro-Gly-Pro-Arg(NO2)—OCH(CH3)2•HCl salt (H-VPGP[Arg(NO2)]-OiPr; also: HCl salt)
Purity(%) at day 1 [1]: 98.6 ± 0.2%
Purity(%) at day 30 [1]: 98.1 ± 0.2%
Purity(%) at day 90 [1]: 97.2 ± 0.1%
Purity(%) at day 180 [1]: 95.4 ± 0.1%
Purity(%) at day 360 [1]: 92.1 ± 0.2%
Purity(%) at day 1 [2]: 98.6 ± 0.2%
Purity(%) at day 30 [2]: 98.2 ± 0.1%
Purity(%) at day 90 [2]: 97.1 ± 0.2%
Purity(%) at day 180 [2]: 95.6 ± 0.2%
Purity(%) at day 360 [2]: 92.0 ± 0.2%
Purity(%) at day 1 [3]: 98.6 ± 0.2%
Purity(%) at day 30 [3]: 98.2 ± 0.2%
Purity(%) at day 90 [3]: 97.0 ± 0.1%
Purity(%) at day 180 [3]: 95.6 ± 0.2%
Purity(%) at day 360 [3]: 92.1 ± 0.2%
Purity(%) at day 1 [4]: 98.5 ± 0.2%
Purity(%) at day 30 [4]: 97.0 ± 0.2%
Purity(%) at day 90 [4]: 93.8 ± 0.1%
Purity(%) at day 180 [4]: 88.1 ± 0.2%
Purity(%) at day 360 [4]: 80.1 ± 0.3%
Purity(%) at day 1 [5]: 98.3 ± 0.2%
Purity(%) at day 30 [5]: 85.0 ± 0.2%
Purity(%) at day 90 [5]: 59.5 ± 0.2%
Purity(%) at day 180 [5]: 43.5 ± 0.3%
Purity(%) at day 360 [5]: 17.6 ± 0.3%
Purity(%) at day 1 [6]: 98.4 ± 0.2%
Purity(%) at day 30 [6]: 91.7 ± 0.2%
Purity(%) at day 90 [6]: 84.7 ± 0.3%
Purity(%) at day 180 [6]: 71.7 ± 0.3%
Purity(%) at day 360 [6]: 52.7 ± 0.3%
Purity(%) at day 1 [7]: 98.3 ± 0.3%
Purity(%) at day 30 [7]: 78.1 ± 0.4%
Purity(%) at day 90 [7]: 44.1 ± 0.4%
Purity(%) at day 180 [7]: 25.1 ± 0.4%
Purity(%) at day 360 [7]: 0%
Purity(%) at day 1 [8]: 98.0 ± 0.3%
Purity(%) at day 30 [8]: 56.3 ± 0.3%
Purity(%) at day 90 [8]: 32.3 ± 0.4%
Purity(%) at day 180 [8]: 3.9 ± 0.4%
Purity(%) at day 360 [8]: 0%
Purity(%) at day 1 (25% ethanol, pH 3.0, 25° C.): 98.5 ± 0.1%
Purity(%) at day 30 (25% ethanol, pH 3.0, 25° C.): 97.4 ± 0.2%
Purity(%) at day 90 (25% ethanol, pH 3.0, 25° C.): 94.7 ± 0.1%
Purity(%) at day 180 (25% ethanol, pH 3.0, 25° C.): 90.7 ± 0.2%
Purity(%) at day 360 (25% ethanol, pH 3.0, 25° C.): 82.7 ± 0.3%

H-Ala-Pro-Gly-Pro-Arg(NO2)—OCH2CH3•HCl salt (H-APGP[Arg(NO2)]-OEt; also: HCl salt)
Purity(%) at day 1 [1]: 98.1 ± 0.2%
Purity(%) at day 30 [1]: 97.3 ± 0.2%
Purity(%) at day 90 [1]: 95.0 ± 0.1%
Purity(%) at day 180 [1]: 91.2 ± 0.3%
Purity(%) at day 1 [2]: 98.2 ± 0.1%
Purity(%) at day 30 [2]: 97.4 ± 0.2%
Purity(%) at day 90 [2]: 95.1 ± 0.3%
Purity(%) at day 180 [2]: 91.2 ± 0.3%
Purity(%) at day 1 [3]: 98.2 ± 0.2%
Purity(%) at day 30 [3]: 97.3 ± 0.2%
Purity(%) at day 90 [3]: 95.0 ± 0.3%
Purity(%) at day 180 [3]: 91.1 ± 0.3%
Purity(%) at day 1 [4]: 98.1 ± 0.2%
Purity(%) at day 30 [4]: 94.7 ± 0.2%
Purity(%) at day 90 [4]: 91.5 ± 0.3%
Purity(%) at day 180 [4]: 83.7 ± 0.3%
Purity(%) at day 1 [6]: 97.8 ± 0.1%
Purity(%) at day 30 [6]: 84.2 ± 0.2%
Purity(%) at day 90 [6]: 69.6 ± 0.2%
Purity(%) at day 180 [6]: 39.9 ± 0.3%
Purity(%) at day 1 [7]: 97.9 ± 0.2%
Purity(%) at day 30 [7]: 55.2 ± 0.3%
Purity(%) at day 90 [7]: 31.3 ± 0.3%
Purity(%) at day 180 [7]: 0%
Purity(%) at day 1 [8]: 97.5 ± 0.1%
Purity(%) at day 30 [8]: 22.6 ± 0.2%
Purity(%) at day 90 [8]: 0%
Purity(%) at day 180 [8]: 0%
Purity(%) at day 1 (25% ethanol, pH 3.0, 25° C.): 98.1 ± 0.2%
Purity(%) at day 30 (25% ethanol, pH 3.0, 25° C.): 95.7 ± 0.3%
Purity(%) at day 90 (25% ethanol, pH 3.0, 25° C.): 92.8 ± 0.3%
Purity(%) at day 180 (25% ethanol, pH 3.0, 25° C.): 86.0 ± 0.3%
